In IntAct's records for PubMed 27905398:

B1: Zinc finger CCHC domain-containing protein 8 (Homo sapiens), Q6NZY4 (parent)
chain: MAAEVYFGDLELFEPFDHPEESIPKPVHTRFKDDDGDEEDENGVGDAELRERLRQCEETIEQLRAENQELKRKLNILTRPSGILVNDTKLDGPILQILFMNNAISKQYHQEIEEFVSNLVKRFEEQQKNDVEKTSFNLLPQPSSIVLEEDHKVEESCAIKNNKEAFSVVGSVLYFTNFCLDKLGQPLLNENPQLSEGWEIPKYHQVFSHIVSLEGQEIQVKAKRPKPHCFNCGSEEHQMKDCPMPRNAARISEKRKEYMDACGEANNQNFQQRYHAEEVEERFGRFKPGVISEELQDALGVTDKSLPPFIYRMRQLGYPPGWLKEAELENSGLALYDGKDGTDGETEVGEIQQNKSVTYDLSKLVNYPGFNISTPRGIPDEWRIFGSIPMQACQQKDVFANYLTSNFQAPGVKSGNKRSSSHSSPGSPKKQKNESNSAGSPADMELDSDMEVPHGSQSSESFQFQPPLPPDTPPLPRGTPPPVFTPPLPKGTPPLTPSDSPQTRTASGAVDEDALTLEELEEQQRRIWAALEQAESVNSDSDVPVDTPLTGNSVASSPCPNELDLPVPEGKTSEKQTLDEPEVPEIFTKKSEAGHASSPDSEVTSLCQKEKAELAPVNTEGALLDNGSVVPNCDISNGGSQKLFPADTSPSTATKIHSPIPDMSKFATGITPFEFENMAESTGMYLRIRSLLKNSPRNQQKNKKASE
partner: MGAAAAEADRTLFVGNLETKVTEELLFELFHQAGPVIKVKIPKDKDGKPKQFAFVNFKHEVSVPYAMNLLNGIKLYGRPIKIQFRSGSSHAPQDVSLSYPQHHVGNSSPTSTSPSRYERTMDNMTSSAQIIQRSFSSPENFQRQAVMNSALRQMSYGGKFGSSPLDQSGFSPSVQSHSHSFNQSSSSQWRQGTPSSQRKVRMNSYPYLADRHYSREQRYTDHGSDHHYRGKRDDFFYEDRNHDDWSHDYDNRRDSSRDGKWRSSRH
B2: RNA-binding protein 7 (Homo sapiens), Q9Y580 (parent)
chain: B1 partner
partner: B1 chain

Variants of: B1
Details: with rbm7_human RBM7, Q9Y580
With F309A;M313E the “effect of a mutation on the interaction” value was “disrupting interaction strength”. L295E;L299E was tested, and the “effect of a mutation on the interaction” value was “disrupting interaction strength”.

Variants of: B2
Details: with zchc8_human ZCCHC8, Q6NZY4
For Y65A;L69E, the “effect of a mutation on the interaction” value was “decreasing interaction strength”. With L25E;L29E the “effect of a mutation on the interaction” value was “decreasing interaction strength”.
